US10669549B2, “Gold optimized CAR T-cells” (Chimera Bioengineering, Inc., priority 2016, dated 2020)

Columns and labels:
Assay type in all cases: cell-based
CD4+ T-cells [1] = test: IL-12 expression of transduced T cells by ELISA, resting versus Raji co-culture
From the text: The anti-CD19 CAR cassette and the insert with the IL-12-RDE1 are transcribed in opposite directions, and the control regions for each are located in between the two insert/cassettes. The control region for the IL-12-RDE1 insert and IL-12 3′-UTR were either a minP promoter or an NFAT promoter. The control region of the anti-CD19 CAR cassette was the MND promoter. CD4+ T-cells were transduced with the bicistronic construct.
The transduced T cells were allowed to return to resting state, and then were tested after stimulation as follows. For the ‘no stimulation’ set, transduced T-cells were incubated for 24 h alone in medium. For the ‘Raji co-culture’ set, CD19+ Raji B cells were incubated with the transduced T cells for 24 h. At 24 h, the T cells were stained for CD25 and CD69, which are activation markers, and subject to flow cytometry to measure these markers. IL-12 expression in the T cells was measured by ELISA.

CD4+ T-cells [2] = test: Luciferase bioluminescence of transduced T-cells, resting versus stimulated; conditions: for bioluminescence as compared to T-cells at resting: Raji target cells (activate CAR), FIG. 17; for amount of bioluminescence, comparison among RDE constructs: with either promoter (MinP or NFAT)
From the text: The anti-CD19 CAR cassette and the insert with the luciferase-RDE1 are transcribed in opposite directions, and the control regions for each are located in between the two insert/cassettes. The control region for the Luciferase-RDE1 insert and Luciferase-3′-UTR were either a MinP promoter or an NFAT promoter having the sequences of:
The control region of the anti-CD19 CAR cassette was the MND promoter. CD4+ T-cells were transduced with the bicistronic construct.
The transduced T cells were allowed to return to resting state, and then were tested after stimulation as follows. For the ‘no stimulation’ set, transduced T-cells were incubated for 24 h alone in medium. For the ‘Raji co-culture’ set and the “CD3/CD28 Beads” set, CD19+ Raji B cells or anti-CD3/anti-CD28 beads were incubated with the transduced T cells for 24 h. At 24 h, the T cells were stained for CD25 and CD69, which are activation markers, and subject to flow cytometry to measure these markers and luciferase expression in the T cells.
Combinations of these inserts/cassettes shown in FIG. 17 were placed in the similar lenti virus constructs. The anti-CD19 CAR cassette and the insert with the luciferase-RDE are transcribed in opposite directions, and the control regions for each are located in between the two insert/cassettes. The control region for the Luciferase-RDE insert and Luciferase-3′-UTR were either a MinP promoter or an NFAT promoter. The control region of the anti-CD19 CAR cassette was the MND promoter, and CD4+ T-cells were transduced with the bicistronic construct.
The transduced T cells were allowed to return to resting state, and then were tested after stimulation as follows. For the ‘no stimulation’ set, transduced T-cells were incubated for 24 h alone in medium. For the ‘Raji co-culture’ set CD19+ Raji B cells were incubated with the transduced T cells for 24 h. At 24 h, the T cells were stained for CD25 and CD69, which are activation markers, and subject to flow cytometry to measure these markers and luciferase expression in the T cells.

[3] = Expression from constructs with 3′-UTR RDEs after removal of microRNA binding sites; conditions: MIR186 micro-RNA sites removed from the 3′-UTR of IL-2
From the text: The AU-rich element from the 3′-UTR of IL-2 has mir-181 and mir 186 microRNA binding sites. Different combinations of the microRNA sites were removed from the 3′-UTR of IL-2. When the MIR186 micro-RNA sites were removed from the 3′-UTR of IL-2 the dynamic range of expression from constructs with this UTR increased 50 fold. The modified IL-2, 3′-UTR replaces CTT in the sequence with GAA and is shown below (the new GAA is underlined in the sequence):
Different combinations of the micro-RNA sites were removed from the 3′UTR of IFNg and tested for increased expression. When the mir125 micro-RNA sites were removed from the 3′-UTR of IFN-γ the expression rate from constructs with this UTR is increased.

B1: RDE1: RNA destabilizing element: endogenous 3′-UTR of IFNg (SEQ ID NO: 30), controlling luciferase or IL-12 in anti-CD19 CAR CD4+ T-cells (nucleic acid, listed as Homo sapiens)
DNA: TGGTTGTCCTGCCTGCAATATTTGAATTTTAAATCTAAATCTATTTATTAATATTTAACATTATTTATATGGGGAATATATTTTTAGACTCATCAATCAAATAAGTATTTATAATAGCAACTTTTGTGTAATGAAAATGAATATCTATTAATATATGTATTATTTATAATTCCTATATCCTGTGACTGTCTCACTTAATCCTTTGTTTTCTGACTAATTAGGCAAGGCTATGTGATTACAAGGCTTTATCTCAGGGGCCAACTAGGCAGCCAACCTAAGCAAGATCCCATGGGTTGTGTGTTTATTTCACTTGATGATACAATGAACACTTATAAGTGAAGTGATACTATCCAGTTACTGCCGGTTTGAAAATATGCCTGCAATCTGAGCCAGTGCTTTAATGGCATGTCAGACAGAACTTGAATGTGTCAGGTGACCCTGATGAAAACATAGCATCTCAGGAGATTTCATGCCTGGTGCTTCCAAATATTGTTGACAACTGTGACTGTACCCAAATGGAAAGTAACTCATTTGTTAAAATTATCAATATCTAATATATATGAATAAAGTGTAAGTTCACAACTA
- change in IL-12 expression from resting to CAR stimulation (CD4+ T-cells [1]; MinP promoter): 6.3 fold
- change in IL-12 expression from resting to CAR stimulation (CD4+ T-cells [1]; NFAT promoter): 168 fold
- increase in bioluminescence with CAR stimulation (CD4+ T-cells [2]; MinP promoter): 4.1 fold
- increase in bioluminescence with CAR stimulation (CD4+ T-cells [2]; NFAT promoter): 8.5 fold
- on-off response from CAR stimulation versus TCR stimulation (CD4+ T-cells [2]; NFAT promoter, luciferase): larger on-off response
- bioluminescence as compared to T-cells at resting (CD4+ T-cells [2]): increase in bioluminescence
- amount of bioluminescence compared with luciferase not controlled by an RDE (3′-UTR) (CD4+ T-cells [2]; all conditions, same promoter): lower amounts of bioluminescence
- on-off response with NFAT promoter compared with MinP promoter and the corresponding RDE (CD4+ T-cells [2]; luciferase, Raji co-culture): larger on-off response
- amount of bioluminescence, comparison among RDE constructs (CD4+ T-cells [2]): lowest amount of bioluminescence

B2: RDE3: 3′-UTR of IL-2 modified to remove the mir186 sites (CTT replaced with GAA, SEQ ID NO: 29) (nucleic acid, listed as Homo sapiens)
DNA: TAATTAAGTGCTTCCCACTTAAAACATATCAGGCCTTCTATTTATTTAAATATTTAAATTTTATATTTATTGTTGAATGTATGGTTTGCTACCTATTGTAACTATTATTCTTAATCTTAAAACTATAAATATGGATCTTTTATGATTGAATTTGTAAGCCCTAGGGGCTCTAAAATGGTTTCACTTATTTATCCCAAAATATTTATTATTATGTTGAATGTTAAATATAGTATCTATGTAGATTGGTTAGTAAAACTATTTAATAAATTTGATAAATATAAA
- increase of dynamic range of expression from constructs with this UTR [3]: 50 fold
- increase in bioluminescence with CAR stimulation (CD4+ T-cells [2]; MinP promoter): 1.4 fold
- increase in bioluminescence with CAR stimulation (CD4+ T-cells [2]; NFAT promoter): 1.3 fold
- bioluminescence as compared to T-cells at resting (CD4+ T-cells [2]): increase in bioluminescence
- amount of bioluminescence, comparison among RDE constructs (CD4+ T-cells [2]): highest amount of bioluminescence

B3: RDE2: RNA destabilizing element: endogenous 3′-UTR of IL-2 (SEQ ID NO: 28), controlling luciferase in anti-CD19 CAR CD4+ T-cells (nucleic acid, listed as Homo sapiens)
DNA: TAATTAAGTGCTTCCCACTTAAAACATATCAGGCCTTCTATTTATTTAAATATTTAAATTTTATATTTATTGTTGAATGTATGGTTTGCTACCTATTGTAACTATTATTCTTAATCTTAAAACTATAAATATGGATCTTTTATGATTCTTTTTGTAAGCCCTAGGGGCTCTAAAATGGTTTCACTTATTTATCCCAAAATATTTATTATTATGTTGAATGTTAAATATAGTATCTATGTAGATTGGTTAGTAAAACTATTTAATAAATTTGATAAATATAAA
- increase in bioluminescence with CAR stimulation (CD4+ T-cells [2]; MinP promoter): 1.8 fold
- increase in bioluminescence with CAR stimulation (CD4+ T-cells [2]; NFAT promoter): 3.1 fold
- bioluminescence as compared to T-cells at resting (CD4+ T-cells [2]): increase in bioluminescence
- amount of bioluminescence, comparison among RDE constructs (CD4+ T-cells [2]): between RDE3 and RDE1
